Literature values, collected in paper PMC11962798.

Molecular target: Spike protein RBD (SARS-CoV-2) (UniProt P0DTC2)

Bamlanivimab
Kd: 1.5 nM
